Data reported in publication PMC13276077.

B1: 20 bp dsDNA (dsDNA)
DNA 1: AATACGCGGCCGCCCTGGAG
DNA 2: CTCCAGGGCGGCCGCGTATT
B2: N601 nucleosome core particle unmethylated (nucleosome)
DNA 1: CAGGATGTATATATCTGACACGTGCCTGGAGACTAGGGAGTAATCCCCTTGGCGGTTAAAACGCGGGGGACAGCGCGTACGTGCGTTTAAGCGGTGCTAGAGCTGTCTACGACCAATTGAGCGGCCTCGGCACCGGGATTCTCCA
DNA 2: TGGAGAATCCCGGTGCCGAGGCCGCTCAATTGGTCGTAGACAGCTCTAGCACCGCTTAAACGCACGTACGCGCTGTCCCCCGCGTTTTAACCGCCAAGGGGATTACTCCCTAGTCTCCAGGCACGTGTCAGATATATACATCCTG
B3: 15-N601-15 nucleosome unmethylated (nucleosome)
DNA 1: ATGGAACACATTGCACAGGATGTATATATCTGACACGTGCCTGGAGACTAGGGAGTAATCCCCTTGGCGGTTAAAACGCGGGGGACAGCGCGTACGTGCGTTTAAGCGGTGCTAGAGCTGTCTACGACCAATTGAGCGGCCTCGGCACCGGGATTCTCCAGGGCGGCCGCGTATT
DNA 2: AATACGCGGCCGCCCTGGAGAATCCCGGTGCCGAGGCCGCTCAATTGGTCGTAGACAGCTCTAGCACCGCTTAAACGCACGTACGCGCTGTCCCCCGCGTTTTAACCGCCAAGGGGATTACTCCCTAGTCTCCAGGCACGTGTCAGATATATACATCCTGTGCAATGTGTTCCAT
B4: 16-N603-30 nucleosome unmethylated (nucleosome)
DNA 1: GAGCCACAAAATCACCGACGCTCACGGGTGCCCAGTTCGCGCGCCCACCTACCGTGTGAAGTCGTCACTCGGGCTTCTAAGTACGCTTAGCGCACGGTAGAGCGCAATCCAAGGCTAACCACCGTGCATCGATGTTGAAAGAGGCCCTCCGTCCTTATTACTTCAAGTCCCTGGGGTACCCGTTTCACTGCCA
DNA 2: TGGCAGTGAAACGGGTACCCCAGGGACTTGAAGTAATAAGGACGGAGGGCCTCTTTCAACATCGATGCACGGTGGTTAGCCTTGGATTGCGCTCTACCGTGCGCTAAGCGTACTTAGAAGCCCGAGTGACGACTTCACACGGTAGGTGGGCGCGCGAACTGGGCACCCGTGAGCGTCGGTGATTTTGTGGCTC
B5: N603-30 nucleosome 91 meCpA (nucleosome)
DNA 1: GAGCCACAAAATCACCGACGCTCACGGGTGCCCAGTTCGCGCGCCCACCTACCGTGTGAAGTCGTCACTCGGGCTTCTAAGTACGCTTAGCGCACGGTAGAGCGCAATCCAAGGCTAACCACCGTGCATCGATGTTGAAAGAGGCCCTCCGTCCTTATTACTTCAAGTCCCTGGGGT
DNA 2: ACCCCAGGGACTTGAAGTAATAAGGACGGAGGGCCTCTTTCAACATCGATGCACGGTGGTTAGCCTTGGATTGCGCTCTACCGTGCGCTAAGCGTACTTAGAAGCCCGAGTGACGACTTCACACGGTAGGTGGGCGCGCGAACTGGGCACCCGTGAGCGTCGGTGATTTTGTGGCTC
modifications: asymmetric meCpA at 91
B6: N603-30 nucleosome (single 30 bp linker) (nucleosome)
DNA 1: B5 DNA 1
DNA 2: B5 DNA 2
B7: 15-N601-15 nucleosome -1 meCpG (nucleosome)
DNA 1: B3 DNA 1
DNA 2: B3 DNA 2
modifications: meCpG at -1
B8: 15-N601-15 nucleosome -61 meCpG (nucleosome)
DNA 1: B3 DNA 1
DNA 2: B3 DNA 2
modifications: meCpG at -61 (GGCACCGGGATT)
B9: 16-N603-30 nucleosome 81 meCpA (nucleosome)
DNA 1: B4 DNA 1
DNA 2: B4 DNA 2
modifications: asymmetric meCpA at 81
B10: 16-N603-30 nucleosome 91 meCpA (nucleosome)
DNA 1: B4 DNA 1
DNA 2: B4 DNA 2
modifications: asymmetric meCpA at 91

Molecular target: HisMBP-MeCP2 205-257 (DIR) (Homo sapiens, UniProt P51608 205-257)
Test: EMSA; 20 mM HEPES pH 7.5, 75 mM NaCl, 125 mM KCl, 50 uM EDTA, 2.5 mM beta-mercaptoethanol, 5% glycerol, BSA, 1.58 uM 47 bp competitor DNA (nucleosome assays; absent with free DNA), room temperature 30 min
Settings: protein: recombinant; tags: His-MBP; label: 5' 6-FAM; blunt

Question: For B1, which Kd is on record?
Answer: Its Kd is 814 ± 50.1 nM.

Molecular target: HisMBP-MeCP2 162-309;histone octamer, acidic patch mutant (Homo sapiens;Homo sapiens, UniProt P51608;P0C0S8;P62807;P68431;P62805 162-309;2-130;2-126;2-136;2-103, |H2A E61A;E91A;E92A;H2B E113A;H3.1 C96S;C110A)
Test: EMSA; acidic patch mutant histone octamer; 20 mM HEPES pH 7.5, 75 mM NaCl, 125 mM KCl, 50 uM EDTA, 2.5 mM beta-mercaptoethanol, 5% glycerol, BSA, 1.58 uM 47 bp competitor DNA (nucleosome assays); absent w
Settings: not given

Question: How did the Kd turn out when B2 was run?
Answer: The Kd was 1830 nM.

Question: With B3 as the binder, how does the Kd read?
Answer: Its Kd is 217 nM.

Molecular target: HisMBP-MeCP2 162-309;histone octamer (Homo sapiens;Homo sapiens, UniProt P51608;P0C0S8;P62807;P68431;P62805 162-309;2-130;2-126;2-136;2-103, |H3.1 C96S;C110A)
Test: EMSA; 20 mM HEPES pH 7.5, 75 mM NaCl, 125 mM KCl, 50 uM EDTA, 2.5 mM beta-mercaptoethanol, 5% glycerol, BSA, 1.58 uM 47 bp competitor DNA (nucleosome assays); absent w
Settings: not given

Question: How did the Kd turn out when B2 was run?
Answer: The Kd was 786 nM.

Molecular target: HisMBP-MeCP2 205-257 (DIR);histone octamer (Homo sapiens;, UniProt P51608;P0C0S8;P62807;P68431;P62805 205-257;2-130;2-126;2-136;2-103, |H2B T115C;H3.1 C96S;C110A)
Test: as above
Settings: not given

Question: B2 was tested. Which Kd did it give?
Answer: Its Kd is 1970 nM.

Question: With B3 as the binder, how does the Kd read?
Answer: The Kd was 581 nM.

Question: For B4, which Kd is on record?
Answer: The Kd was 298 nM.

Molecular target: MeCP2 full-length, e2 isoform;histone octamer (Homo sapiens;, UniProt P51608;P0C0S8;P62807;P68431;P62805 1-486;2-130;2-126;2-136;2-103, |H2B T115C;H3.1 C96S;C110A)
Test: as above
Settings: not given

Question: B5 was tested. Which Kd did it give?
Answer: The Kd was 61.4 nM.

Question: Which Kd does the source give for B6 here?
Answer: Its Kd is 102 nM.

Question: Does B2 bind?
Answer: Result: no binding

Question: How did the Kd turn out when B7 was run?
Answer: Its Kd is 130 nM.

Question: B3 was tested. Which Kd did it give?
Answer: The Kd was 220 nM.

Question: With B8 as the binder, how does the Kd read?
Answer: The Kd was 137 nM.

Question: Which Kd does the source give for B4 here?
Answer: Its Kd is 94.9 nM.

Question: B9 was tested. Which Kd did it give?
Answer: The Kd was 65.3 nM.

Question: With B10 as the binder, how does the Kd read?
Answer: The Kd was 57.1 nM.

Molecular target: MeCP2 AT-DIRmut;histone octamer (Homo sapiens;, UniProt P51608;P0C0S8;P62807;P68431;P62805 1-486;2-130;2-126;2-136;2-103, R188G;R190G;K254N;K256N;R268Q|H2B T115C;H3.1 C96S;C110A)
Test: as above
Settings: not given

Question: Which Kd does the source give for B7 here?
Answer: Its Kd is 71.3 nM.

Question: With B3 as the binder, how does the Kd read?
Answer: Its Kd is 85.2 nM.

Question: With B8 as the binder, how does the Kd read?
Answer: The Kd was 78.6 nM.

Question: B4 was tested. Which Kd did it give?
Answer: The Kd was 41.5 nM.

Question: B9 was tested. Which Kd did it give?
Answer: The Kd was 42.2 nM.

Question: B10 was tested. Which Kd did it give?
Answer: Its Kd is 25.3 nM.

Molecular target: MeCP2 R133G;histone octamer (Homo sapiens;, UniProt P51608;P0C0S8;P62807;P68431;P62805 1-486;2-130;2-126;2-136;2-103, R133G|H2B T115C;H3.1 C96S;C110A)
Test: as above
Settings: not given

Question: How did the Kd turn out when B7 was run?
Answer: Its Kd is 522 nM.

Question: With B3 as the binder, how does the Kd read?
Answer: The Kd was 596 nM.

Question: For B8, which Kd is on record?
Answer: The Kd was 534 nM.

Question: How did the Kd turn out when B4 was run?
Answer: Its Kd is 188 nM.

Question: How did the Kd turn out when B10 was run?
Answer: Its Kd is 162 nM.

Molecular target: MeCP2 MBD;histone octamer (Homo sapiens;, UniProt P51608;P0C0S8;P62807;P68431;P62805 77-167;2-130;2-126;2-136;2-103, |H2B T115C;H3.1 C96S;C110A)
Test: as above
Settings: not given

Question: B7 was tested. Which Kd did it give?
Answer: Its Kd is 812 nM.

Question: B3 was tested. Which Kd did it give?
Answer: Its Kd is 1000 nM.

Question: How did the Kd turn out when B8 was run?
Answer: The Kd was 809 nM.

Question: With B4 as the binder, how does the Kd read?
Answer: The Kd was 716 nM.

Question: With B9 as the binder, how does the Kd read?
Answer: The Kd was 268 nM.

Question: For B10, which Kd is on record?
Answer: Its Kd is 85.7 nM.

Molecular target: HisMBP-MeCP2 162-309;histone octamer (Homo sapiens;, UniProt P51608;P0C0S8;P62807;P68431;P62805 162-309;2-130;2-126;2-136;2-103, |H2B T115C;H3.1 C96S;C110A)
Test: as above
Settings: not given

Question: Which Kd does the source give for B2 here?
Answer: Its Kd is 734 nM.

Question: B3 was tested. Which Kd did it give?
Answer: Its Kd is 240 nM.

Question: Which Kd does the source give for B4 here?
Answer: The Kd was 94.6 nM.

Question: With B10 as the binder, how does the Kd read?
Answer: The Kd was 103 nM.

Molecular target: MeCP2 full-length, e2 isoform;histone octamer, tailless H3 (Homo sapiens;Homo sapiens, UniProt P51608;P0C0S8;P62807;P68431;P62805 1-486;2-130;2-126;26-136;2-103, |H3.1 del1-24;A25C;C96S;C110A)
Test: EMSA; H3-tailless histone octamer; 20 mM HEPES pH 7.5, 75 mM NaCl, 125 mM KCl, 50 uM EDTA, 2.5 mM beta-mercaptoethanol, 5% glycerol, BSA, 1.58 uM 47 bp competitor DNA (nucleosome assays); absent w
Settings: not given

Question: Which Kd does the source give for B5 here?
Answer: The Kd was 47 nM.

Question: How did the Kd turn out when B6 was run?
Answer: Its Kd is 86.9 nM.

Molecular target: MeCP2 full-length, e2 isoform;histone H1.0;histone octamer (Homo sapiens;Homo sapiens;, UniProt P51608;P07305;P0C0S8;P62807;P68431;P62805 1-486;1-194;2-130;2-126;2-136;2-103, ||H2B T115C;H3.1 C96S;C110A)
Test: EMSA; histone H1.0 pre-bound (chromatosome); 20 mM HEPES pH 7.5, 75 mM NaCl, 125 mM KCl, 50 uM EDTA, 2.5 mM beta-mercaptoethanol, 5% glycerol, BSA, 1.58 uM 47 bp competitor DNA (nucleosome assays); absent w
Settings: not given

Question: Does B7 bind?
Answer: Result: no binding

Question: Does B3 bind?
Answer: Result: no binding

Question: Does B8 bind?
Answer: Result: no binding
